Patent US20240052042A1 (Novartis, published 2024)

T1: human Natriuretic Peptide Receptor 1 (hNPR1) (human, UniProt P16066 33-473, limits assumed)
T1 construct: pannings used NPR1-hFc; also called NPR1-hFc
T1 sequence: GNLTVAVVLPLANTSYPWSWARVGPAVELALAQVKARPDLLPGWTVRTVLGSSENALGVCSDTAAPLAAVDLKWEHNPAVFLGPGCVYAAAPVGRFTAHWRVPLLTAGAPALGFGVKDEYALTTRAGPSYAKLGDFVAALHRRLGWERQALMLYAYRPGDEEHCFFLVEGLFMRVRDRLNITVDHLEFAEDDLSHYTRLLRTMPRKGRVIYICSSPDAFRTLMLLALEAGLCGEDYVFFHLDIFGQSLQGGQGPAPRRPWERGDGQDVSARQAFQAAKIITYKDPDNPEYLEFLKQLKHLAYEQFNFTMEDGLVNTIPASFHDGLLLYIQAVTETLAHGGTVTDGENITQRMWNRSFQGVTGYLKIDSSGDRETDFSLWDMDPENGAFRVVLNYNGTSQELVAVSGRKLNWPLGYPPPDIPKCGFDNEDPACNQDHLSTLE

T2: hNPR1-ANP complex (human, UniProt P01160 124-151, limits assumed)
T2 construct: hNPR1 antigen in the presence of ANP; also called hNPR1 + 100 nM ANP
T2 sequence: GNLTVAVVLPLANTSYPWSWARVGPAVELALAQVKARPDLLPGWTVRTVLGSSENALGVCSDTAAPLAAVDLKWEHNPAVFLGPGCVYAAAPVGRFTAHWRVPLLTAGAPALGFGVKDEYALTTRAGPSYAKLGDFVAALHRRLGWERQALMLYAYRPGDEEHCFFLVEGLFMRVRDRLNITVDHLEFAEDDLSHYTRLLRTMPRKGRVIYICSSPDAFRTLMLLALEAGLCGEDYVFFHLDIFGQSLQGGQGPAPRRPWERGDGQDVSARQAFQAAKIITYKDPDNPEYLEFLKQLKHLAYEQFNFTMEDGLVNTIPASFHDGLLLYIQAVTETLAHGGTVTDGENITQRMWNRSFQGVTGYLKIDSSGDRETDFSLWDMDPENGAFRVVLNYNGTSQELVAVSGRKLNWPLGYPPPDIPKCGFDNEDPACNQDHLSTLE
T2 sequence (peptide): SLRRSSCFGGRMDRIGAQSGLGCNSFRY

T3: rat NPR1 (rNPR1) (rat, UniProt P18910 29-469, limits assumed)
T3 construct: Soluble antigen
T3 sequence: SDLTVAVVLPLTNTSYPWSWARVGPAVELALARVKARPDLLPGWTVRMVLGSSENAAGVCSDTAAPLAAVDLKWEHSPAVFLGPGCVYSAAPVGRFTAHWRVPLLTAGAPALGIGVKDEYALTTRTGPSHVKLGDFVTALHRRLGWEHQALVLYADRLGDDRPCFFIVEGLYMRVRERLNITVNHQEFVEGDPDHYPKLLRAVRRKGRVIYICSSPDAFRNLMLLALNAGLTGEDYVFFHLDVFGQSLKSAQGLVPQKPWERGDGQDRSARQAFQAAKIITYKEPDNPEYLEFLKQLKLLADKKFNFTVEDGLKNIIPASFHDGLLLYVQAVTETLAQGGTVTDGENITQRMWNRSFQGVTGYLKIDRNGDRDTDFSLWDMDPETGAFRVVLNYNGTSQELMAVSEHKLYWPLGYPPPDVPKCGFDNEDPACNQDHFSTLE

T4: rNPR1-ANP complex (rat, UniProt P01160 124-151 (human entry), limits assumed)
T4 construct: rNPR1 antigen in the presence of ANP; also called rNPR1 + 100 nM ANP
T4 sequence: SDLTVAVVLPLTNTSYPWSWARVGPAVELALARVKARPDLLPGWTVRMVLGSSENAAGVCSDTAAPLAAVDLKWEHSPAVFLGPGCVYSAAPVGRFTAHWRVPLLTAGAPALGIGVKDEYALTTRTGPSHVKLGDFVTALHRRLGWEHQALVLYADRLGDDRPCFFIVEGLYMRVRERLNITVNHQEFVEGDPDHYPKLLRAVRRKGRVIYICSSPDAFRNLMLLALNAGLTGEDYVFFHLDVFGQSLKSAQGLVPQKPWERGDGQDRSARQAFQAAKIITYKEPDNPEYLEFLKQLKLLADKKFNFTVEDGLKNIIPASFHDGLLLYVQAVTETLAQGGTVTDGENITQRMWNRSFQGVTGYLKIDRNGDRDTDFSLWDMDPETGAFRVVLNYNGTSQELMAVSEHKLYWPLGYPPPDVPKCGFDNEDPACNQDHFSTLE
T4 sequence (peptide): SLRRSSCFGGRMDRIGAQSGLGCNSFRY


Assays:
[1] = target: T1, human Natriuretic Peptide Receptor 1 …; test: FabCys affinity determination
hNPR1-ANP complex [2] = target: T2, hNPR1-ANP complex; test: FabCys affinity determination
rat NPR1 (rNPR1) [3] = target: T3, rat NPR1 (rNPR1); test: FabCys affinity determination
rNPR1-ANP complex [4] = target: T4, rNPR1-ANP complex; test: FabCys affinity determination
[5] = target: T1, human Natriuretic Peptide Receptor 1 …; test: SET, FabCys
hNPR1-ANP complex [6] = target: T2, hNPR1-ANP complex; test: SET, FabCys
rat NPR1 (rNPR1) [7] = target: T3, rat NPR1 (rNPR1); test: SET, FabCys
rNPR1-ANP complex [8] = target: T4, rNPR1-ANP complex; test: SET, FabCys
hNPR1-ANP complex [9] = target: T2, hNPR1-ANP complex; test: Octet, FabCys
rat NPR1 (rNPR1) [10] = target: T3, rat NPR1 (rNPR1); test: Octet, FabCys
rNPR1-ANP complex [11] = target: T4, rNPR1-ANP complex; test: Octet, FabCys

Row | Kd [1] [nM] | Kd (hNPR1-ANP complex [2]) [nM] | Kd (rat NPR1 (rNPR1) [3]) [nM] | Kd (rNPR1-ANP complex [4]) [nM] | Kd [5] [nM] | Kd (hNPR1-ANP complex [6]) [nM] | Kd (rat NPR1 (rNPR1) [7]) [nM] | Kd (rNPR1-ANP complex [8]) [nM] | Kd (hNPR1-ANP complex [9]) [nM] | Kd (rat NPR1 (rNPR1) [10]) [nM] | Kd (rNPR1-ANP complex [11]) [nM] | Binder
1 | 45 | 1.1 | 280 | 4.4 | – | – | – | – | – | – | – | YY02 (FabCys format) (Fab, V domains shown, Monovalent FabCys) VH: EVQLVESGGGLVKPGGSLRLSCAASGFTFSSYSMNWVRQAPGKGLEWVSSISSSSSYIYYADSVKGRFTISRDNAKNSLYLQMNSLRAEDTAVYYCARSGYRGVYGFDYWGQGTLVTVSS VL: DIQMTQSPSSVSASVGDRVTITCRASQGISSWLAWYQQKPGKAPKLLIYAASSLQSGVPSRFSGSGSGTDFTLTISSLQPEDFATYYCQQYYHSPLTFGQGTKVEIK
2 | – | – | – | – | 9.9 | 1.3 | 2.3 | 1.4 | 0.14 | 66 | 0.1 | ZZ13 (FabCys format) (Fab, V domains shown, Monovalent FabCys) VH: EVQLVESGGGLVQPGGSLRLSCAASGFTFSRYYINWVRQAPGKGLEWVASIHQHGLETRYVESVKGRFTISRDNAKNSLYLQMNSLRAEDTAVYYCARSLRRRSTEHAGFDVWGQGTLVTVSS VL: DIQMTQSPSSLSASVGDRVTITCRASQGISNYLAWYQQKPGKVPKLLIYAASTLQSGVPSRFSGSGSGTDFTLTISSLQPEDVATYYCQQADKFPYTFGQGTKVEIK
